Measurements reported in the DeepSol protein solubility set.

Assay: soluble on expression in E. coli; label from the status in PepcDB or PDB records

| Sequence | soluble on expression in E. coli |
| --- | --- |
| GPGSMPPSQTVEYEEDFGHNLMIHREYISKRCRDRVSFELSALSYSNLELRRGQEHLAGIMNRERRGVSVGASGAPDDQVQMQTDVDANSREVLSARYLFNERRLQFCDRFQNFFQSKLENSAASDSNGHEKQHLFSLMEACAVIFGCETEAARETYYRMFLGLDSETLLEEDEALRNRIADAKLVQRVLENNKGRQEVTQSPKLQQQQDQGKPLHAVSSGTSLLNDCEEERFISSIPELSLFEDETEARANGFVEGEDDVKANNGDLTAGSFSSPASSVNLPEEFEEYAPLYKAYITHAVGKGPVASYDISTLGSTGLTAERRRWRTLMEKIVREDYHTMTEVEQMDAIVLNEQLHTVKFFDLKIGDAIRDILQLLQRETGVGSSVNRDTPVGISPNNPERRV | not soluble |
| DIHRQAYAAMLHSSQSSLGTALKFFHAQSVIDNAYDQEHVHYIDRQVKTRKGMPEASADSIRALLEIDLPARGYSKIDVPCKGSDFCIIGQQHPNSAHFVAIPDYQFLDKSGFDRVVYIWPQGYTLAEEACYFYYVNQASTDSIVRGHVTQGC | not soluble |
| MSLKTHKKVKIPILLKIAKLPKSSFYEWKHKLENTIDKDKELKEMIVDIFSKSFETYGYRRLKMALKSKGYIVNHKKILRLTKELGVQCIKFRTKNGRYSSYKGTVGKIADNVLKRNFHSLQANKLWCTDVTEFKVNGQKLYLSPIIDLYNDEIISYSIQTNPNLNLTNSMLDKALKKVKNTNGFLIHSDQGFHYQHISWAKKLEENNITQSMSRKGNCLDNAIIENFFGLLKQEIYYGEKYNSVEELTKRIHKYIYWYNNIRIKEKLKGLSPVQFRKQSCYNIEGHHHHHH | not soluble |
| MAVIKQDDLIQSVADALQFISYYHPVDFIQAMHEAYLREESPAARDSMAQILINSRMCATGHRPICQDTGIVTVFVRVGMDVRWDGATMSVDDMINEGVRRAYNLPENVLRASILADPAGARKNTKDNTPAVIHYSIVPGDKVEVDVAAKGGGSENKSKMAMLNPSDSIVDWVLKTVPTMGAGWCPPGMLGIGIGGTAEKAAVMAKEVLMDPIDIHELKARGPQNRIEELRLELFEKVNQLGIGAQGLGGLTTVLDVKIMDYPTHAASLPVCMIPNCAATRHAHFVLDGSGPAELEAPSLDAYPEIVWEAGPSARRVDLDKITPEEVQSWKPGETLLLNGKMLTGRDAAHKRMVDMLNKGETLPVDLKGRFIYYVGPVDPVGDEVVGPAGPTTATRMDKFTRQILEQTGLLGMIGKSERGPIAIEAIKDNKAVYLMAVGGAAYLVAQAIKKSKVLAFAELGMEAIYEFEVKDMPVTVAVDTNGESVHITGPAVWQ | not soluble |
| MALPGNYAPEVLLPQIAEINARIYADVNNGVYKAGFATRQSVYEKAVMVLFRCMDELEQLLSRQRYLIGNCITEADWRIFTTLIRFDPVYHGHFKCNLRRLVDYPNLWAYTRELYQWPGVAETVNMQHIKEHYYRSHPTINLEHHHHHH | not soluble |
| MKGTIFAVALNHRSQLDAWQEAFQQSPYKAPPKTAVWFIKPRNTVIGCGEPIPFPQGEKVLSGATVALIVGKTATKVREEDAAEYIAGYALANDVSLPEESFYRPAIKAKCRDGFCPIGETVALSNVDNLTIYTEINGRPADHWNTADLQRNAAQLLSALSEFATLNPGDAILLGTPQARVEIQPGDRVRVLAEGFPPLENPVVDEREVTTRKSFPTLPHPHGTLFALGLNYADHASELEFKPPEEPLVFLKAPNTLTGDNQTSVRPNNIEYMHYEAELVVVIGKQARNVSEADAMDYVAGYTVCNDYAIRDYLENYYRPNLRVKSRDGLTPMLSTIVPKEAIPDPHNLTLRTFVNGELRQQGTTADLIFSVPFLIAYLSEFMTLNPGDMIATGTPKGLSDVVPGDEVVVEVEGVGRLVNRIVSEETAK | soluble |
| DDHSRALGRTTVNSNLGQGQVSGAESGAKTAEPAWIDFMQVALEGKPEQGKNIPDDIVRVRIDRNSGLLTHKVDSTSMFEYFEKGTEPTEYVGNSLEDSIYSSGSGGTTEELF | not soluble |
| MKPSVILYKALPDDLLQRLQEHFTVHQVANLSPQTVEQNAAIFAEAEGLLGSNENVNAALLEKMPKLRATSTISVGYDNFDVDALTARKILLMHTPTVLTETVADTLMALVLSTARRVVEVAERVKAGEWTASIGPDWYGTDVHHKTLGIVGMGRIGMALAQRAHFGFNMPILYNARRHHKEAEERFNARYCDLDTLLQESDFVCLILPLTDETHHLFGAEQFAKMKSSAIFINAGRGPVVDENALIAALQKGEIHAAGLDVFEQEPLSVDSPLLSMANVVAVPHIGSATHETRYGMAACAVDNLIDALQGKVEKNCVNPHVAD | soluble |
| MANHARVVRGGEMASAQWLQALAAGVEPEVRMNPVLVKPFGERGAQVVVWGKVDPFLSGLPWKERRPHLEAPVREALEGLLAEYDLLVLEGAGSPVERNLWPDLPNLRVAEWADAKALLVADVDQGGALGALYGTWALLGEHRKRLIGFAFNKFRGDLELLKPAYALLRDWTGLPVLGTLPLLPLALPEEDGFRYRQPAGNGPKVALLRYPHAANLDEFWPLSELAQVVYAHSPEEAEGAWLLILPGSRLPARDLPWLRAFLPLIQRHLEAGKPVLAVCGGAEMLSEALLDEEGVEERGHFPGLGLLPYRVRMAREKTVERRRVRLRGLSGYWGRLEGLEVEGYEIHHGQGLPLFHQEGSLLATWLHGLLENPGVQKALFGREARGLEEGLEALADALERHLDLRALHRALGLTGRAFPASPTEAKAPVGCPDPPPPPGLVLLLGGAKSGKSRFAQRLAGPFATLVATAEARDEEMAEKIRRHQEERPPTWETLEAPLDLVGALKRARHPTVVVDCLTLWVANLMERGLDPLLEARRFLSAVEESGKRVIAVSNEVGMGIVPQNPLARRYRDLLGQVNALLAEAAQEAYLLVAGRALPLGGGKVPAQEAKRPGSHGGEPGPGRSRDPGP | soluble |
| MKIVYWSGTGNTEKMAELIAKGIIESGKDVNTINVSDVNIDELLNEDILILGCSAMADEVLEESEFEPFIEEISTKISGKKVALFGSYGWGDGKWMRDFEERMNGYGCVVVETPLIVQNEPDEAEQDCIEFGKKIANI | soluble |
| SLNRLFKRYSQQVQLILEATRAIGDGNLKERIDTNQVQEELNDIASAINFMVDSLDQYIHDIYTLEIKQRDAHMRALQSQINPHFLYNTLEYIRMYALSRQQEELADVVYAFSTLLRNNINQEKTTTLAEEISFCEKYVYLYQMRYPDQFAYKFEIEETIADVEIPKFIIQPLVENYFVHGIDYQRQDNAIKVHAYREGEKIIVAVVDNGKGITANRLEEIRERLNQTEIDTEQSIGLRNVHERLQRFFGESYGLTIEGKEGEGTTIRLSFVA | soluble |
| MADNKITFFGKCDGISVEQLIRYSRFNMNVKHFHNQYEIFYIIEGERQFFFDNKSYNAYAGDIAILDTNLVHTTCSISDEDKGYNRVILYIDYEKMCDFDKKYPGLNLVNYFHNNYGIYHLNEDQRIAFLNLYRDLRHELTKKNSGYQSRVEIATIYWLYKLLSLKHDSTQIHAVINSPKE | not soluble |
| VKVSKECEKIDIILTDGVIILGKIKGQIDSKSLHEHEKKPFSQSGTMNPETSRLLVNLSRPKKEVLDPFVGTGSILIEARWLNYECIGSDLDKAMLQKTKINLNYFNYYCSLLFSSATNLPFRQITSIATDPPYGRSTKNKGAELTQLYEEFFSSASETLTKGGFLVFATDSRFNFIDKLKENSFIIKGLHYLYSHKSLTRAIYVVQKK | not soluble |
| MKGITSLGSKWFVEFEKNNVHNVYDRIAEHFTKTRYRIWPGVELFLKQTSPLDTVLDVGCGNGKNLISYRNLFCIGIDRCVPLVKTCKQRQLETAVADILELPFQSEKFDIVLCIAVLHHLCTRERRILAIQELGRVLRPGGSCLLYVWAANENDGKDEVKNTKAREKMRFLDENKQEALIPWVVIDHEKKATQLEKNLKQPSTFTLERYYHLYRQGELEEECLQSNCFHIQHSYYEQSNWCVVLDKKS | soluble |
| MKKDQYFNLEVNFLSNDNIVRMMMELDAAQSLGIYMMLLTHLRKADNYEASCCPLCMGAFARMYDLDAGVLQRVLREFDLFVLDEERQMFRSPYLDRVMARLEERRMINVANGKKGGRPKRMESTPETPMDKGEKPNQNQKSREEERRVTTVVKDNNSSNEEKTEKENSAAASDRLQIVSPPEDRGQLPLQPVLPWEMLVDQMAESESYMESMAMHSCMGKLFVERQEEVIAAFKEHIRRFGREDGLLFLRDVKLYFGNYLSPGGRPAQELKKRLLGSCRQSAEEELYRFEQLIGGQRTYLGHPIPKDAPPRPDRSAVWDEVHWKWGN | not soluble |
| MGHHHHHHSHSSVTIGRFQSVRYDVNLEKAKELGIPVVRRITGGGSVFHDEYGEITYSVVISEDYHPMLKNIQDSYRFLAGPLVDALKDLGIEAEFSGLNDIVVRGKKISGSAQTRRRGIILQHGTLMYATRLEI | not soluble |
| MIYLFSHAGLRDLRDFIDRSTLFAFDLDGTLAPIVSDPAGIMIPPDVHERLVRLNGTASVAVVTGRARVDAARHLGFAPRFLVGNHGAEGLPGADAAEREFIGLCRGWMTQLGELLPEGEGTGIVMEDKSATLSLHYRNAPDRENAHQRILAAVSRLLPAPRRVSGKLVENLVPAAAPHKGDALRCIMRHLGCARALFVGDDVTDEDVFRLGDEAIFGIRVGNSGGSAARYFIRGQDEMAPLLDEILAVLLEHHHHHH | soluble |
| MGSDKIHHHHHHMRYVIVGSGPAGLNAIEAIREVDKEGEILLITAEKYVGYSRPLITYLLGRKVTEEKMYYRTEDYLREMRVDIKPATRVEKVIPEEKTVVTDSGEEIRYDKLLIATGGKPFVPNIEGLTGKKGVFTFTTWEDEEKVEKYIEENDVKEAVVLGGGLIGLKTTEALMELGVKVTIVELADRILSVTFDRKASEIITEALKKEGCSVITNDTVVKVNGDDTVSSVVLKSGKEIPTKLLVIAIGVKPNVEFLKDSGIEINRGIVVNEKMETNVEGVYAAGDCTEFYDLIDGQRKTIAIWPVAVAQGRVAGYNMAGKNVRYPGGIPMNSVELAGIPTISVGHSNVEDGGYEILTFEEGNTYKKMVLKDNRLVGAILVNDIDRAGIYTGLILQKLDVSSFKDRLLDENFGLVYLPKEFRKKMLEGEIKIWLE | not soluble |
| MDFITDMSKNQRLELQNRLAQYETSLMVMSHNGDVPVITGFNVMRVTTMLDALKVELPAVAVLGDDAQDLAYVFGARPLAVGVNIIRVVDVPGQQPSALVDAELGALHEVSMVRVLNDIADEQLVKANM | soluble |
| GPGSMLSRIKRQQEEAQAATRSGGESAINQPGQKESMAVLRLKNDLDNLDGICSKVVIPDPDNMLRMKVTVRPSRPSIWHGGFFDFLLEFREEYPYEGPRVRYVGPNRVWHPNIEGSEFAEKEGMEKASRKTEWSVCLSFQTDWKPTFSLRDVIIMIELLFQDPNPDDPLHGTSKQAAQMMKDDPVRFRTKARYWMSGHYID | soluble |
| MKIAILGAGCYRTHAAAGITNFMRACEVAKEVGKPEIALTHSSITYGAELLHLVPDVKEVIVSDPCFAEEPGLVVIDEFDPKEVMEAHLSGNPESIMPKIREVVKAKAKELPKPPKACIHLVHPEDVGLKVTSDDREAVEGADIVITWLPKGNKQPDIIKKFADAIPEGAIVTHAATIPTTKFAKIFKDLGREDLNITSYHPGCVPEMKGQVYIAEGYASEEAVNKLYEIGKIARGKAFKMPANLIGPVCDMCSAVTATVYAGLLAYRDAVTKILGAPADFAQMMADEALTQIHNLMKEKGIANMEEALDPAALLGTADSMCFGPLAEILPTALKVLEKHKVVEEEGKTKCEIMSQKE | soluble |
| MVIEESGNESEASVAPKRRRAPKGDMRRKALLDAATVVFARDGYSSASMREVALLAGITTVGLLHHFPNKEALLSALLERRDQRVTSRFQDMVTELTLDGFLKFLKLSMSFSVENADECQAALLMNTESLSPSHPACSWHRERFQMTHEHARGHLNALIEAGEVRADINVKALAQEIFSVMDGLQIQWLRSPDDVDVMAVFEVYVQRLGRDIKAHP | not soluble |
